Laboratory results taken from patent US20150232556A1 (INNATE PHARMA, published 2015).
Positions count from the first letter of the chain named.

B1: antibody 10F6 (antibody, V domains shown)
VH: QIQLVQSGPELKKPGETVRISCKASGYTFTIAGMQWVQKMPGKGLKWIGWINTHSGVPKYAEDFKGRFAFSLETSANIAYLQISNLKNEDTATYFCARGGDEGVMDYWGQGTSVTVS
VL: DIVMTQSHKFMSTSVGDRVSITCKASQDVSTAVAWYHQKPGQSPKLLIYWASTRHTGVPDRFSGSGSGTDYTLTISALQAEDLALYYCQQHYNTPWTFGGGTKLEIK
notes: Parental murine monoclonal antibody
B2: antibody 2B12 (antibody, V domains shown)
VH: B1 VH with I31T, M40T, T53S, N77S, I78T, N85T
VL: B1 VL with V15L, I21F, H37Q, A51T, S63T, A77S, L78V, N93S
notes: as for B1
B3: antibody 1E2 (antibody, V domains shown)
VH: QVQLQQSGAELVRPGVSVKISCKGSGYTFTDYAMNWVKQSHAKSLEWIGVISTYYGDANYNQKFKGKATMTVDKSSSTAYMELARLTSEDSAIYYCALIYYDYDGSYWGQGTTLTVS
VL: DVVMTQTPLSLPVSLGDQASISCRSSQSLVHSNGNTYLHWYLQKPGQSPKLLIYKVSNRFSGVPDRFSGSGSGTDFTLKISRVEAEDLGVYFCSQSTHVPPYTFGGGTKLEIK
notes: as for B1
B4: antibody 13H1 (antibody, V domains shown)
VH: EVQLQQSGPELVKPGASMKISCKASHYSFIGYTMNWVKQRHGKNLEWIGLINPYNGDTTYNQKFKGKASLTVDKSSSTAYMEILSLTSEDSAVYYCARENWGYPYAMDYWGQGTSVTVS
VL: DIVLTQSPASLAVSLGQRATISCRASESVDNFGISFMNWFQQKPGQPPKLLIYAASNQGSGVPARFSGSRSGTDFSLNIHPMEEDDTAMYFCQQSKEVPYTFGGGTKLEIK
notes: as for B1
B5: antibody 1C3 (antibody, V domains shown)
VH: QVQLQQSGAELARPGASVKLSCKASGYTFTSYWMQWVKQRPGQGLEWIGAIYPGDGDTRYTQKFKGKATLTADKSSSTAYMQLSSLASEDSAVYYCARRYDGYYHFDYWGQGTTLTVS
VL: DIVMTQSPSSLAVTAGEKVTMSCKSSQSLLWSVNQKNYLSWYQQKQRQPPKLLIYGASIRESWVPDRFTGSGSGTDFTLTISNVHAEDLAVYYCQHNHGSFLPLTFGSGTKLEIK
notes: Parental murine monoclonal antibody; also called 1C3 MAb
B6: antibody 20E9 (antibody, V domains shown)
VH: QVQLQQSGAEVARPGASVKLSCKSSGFTFTTYWMQWVKQRPGQGLEWIGAIYPGDGDTRYTQKFKGKATLTADKSSITAYMQLSSLASEDSAVYYCARRGDYGNYGMDYWGQGTSVTVSS
VL: DVLMTQTPLSLPVSLGDQASISCRSSQSIVHSNGNTYLEWYLQKPGQSPKLLIYKVSNHFSGVPDRFSGSGSGTDFTLKISRVEAEDLGVYYCFQGSHVPPTFGGGTKLEIK
notes: as for B1

Key:
[1] = molecular target: T1, wild-type human KIR3DL2 polypeptide (allele *002) (human, UniProt P43630 22-455); assay: binding to HEK-293T cells transfected with wild-type KIR3DL2
T1 construct: also called WTaKIR3DL2; unmutated wild type KIR3DL2

[2] = molecular target: T2, KIR3DL2 mutant M1 + 2 (R13W; A25T; Q27R; I60N; G62S) (human, UniProt P43630 22-455); assay: binding to HEK-293T cells transfected with KIR3DL2 mutant; '-' = substantially complete loss of binding
T2 construct: On transfected HEK-293T cells; also called Number 30 (1 + 2)

[3] = molecular target: T3, KIR3DL2 mutant M2 (I60N; G62S) (human, UniProt P43630 22-455); assay: as above
T3 construct: On transfected HEK-293T cells; also called Mutant 2; Number 2

KIR3DL2 mutant M5 (P66T) = molecular target: T4, KIR3DL2 mutant M5 (P66T) (human, UniProt P43630 22-455); assay: binding to HEK-293T cells transfected with KIR3DL2 mutant
T4 construct: On transfected HEK-293T cells; also called Number 5

[4] = molecular target: T5, KIR3DL2 mutant M3 (R32H; G33R) (human, UniProt P43630 22-455); assay: as above
T5 construct: On transfected HEK-293T cells; also called Mutant 3; Number 3

[5] = molecular target: T6, KIR3DL2 mutant M1 + 2A5 (S140Q) (human, UniProt P43630 22-455); assay: as above
T6 construct: On transfected HEK-293T cells; also called Number 37 (1 + 2 A5)

[6] = molecular target: T7, KIR3DL2 mutant MD0/HLA2 (H29S; F34A) (human, UniProt P43630 22-455); assay: as above
T7 construct: On transfected HEK-293T cells; also called Number 32 (DO-HLA2)

[7] = molecular target: T8, KIR3DL2 mutant M1 (R13W; A25T; Q27R) (human, UniProt P43630 22-455); assay: as above
T8 construct: On transfected HEK-293T cells; also called Mutant 1; Number 1

[8] = molecular target: T9, KIR3DL2 mutant MD0/HLA1 (F9S; S11A) (human, UniProt P43630 22-455); assay: as above
T9 construct: On transfected HEK-293T cells; also called Number 31 (DO-HLA1)

[9] = molecular target: T10, KIR3DL2 mutant M6 (R78H; L82P) (human, UniProt P43630 22-455); assay: as above
T10 construct: On transfected HEK-293T cells; also called Mutant 6; Number 6

[10] = molecular target: T11, KIR3DL2 mutant M4 (S45I; V47I) (human, UniProt P43630 22-455); assay: as above
T11 construct: On transfected HEK-293T cells; also called Number 4

[11] = molecular target: T12, KIR3DL2 mutant M1 + 2A1 (F50A; R53S) (human, UniProt P43630 22-455); assay: as above
T12 construct: On transfected HEK-293T cells; also called Number 33 (1 + 2 A1)

[12] = molecular target: T13, KIR3DL2 mutant M1 + 2A3 (P14S; S15A; H23S) (human, UniProt P43630 22-455); assay: binding to HEK-293T cells transfected with KIR3DL2 mutant; '-' = substantially complete loss of binding
T13 construct: On transfected HEK-293T cells; also called mutant 2A3; Number 35 (1 + 2 A3)

[13] = molecular target: T2, KIR3DL2 mutant M1 + 2 (R13W; A25T; …); assay: binding to HEK-293T cells transfected with KIR3DL2 mutant
[14] = molecular target: T3, KIR3DL2 mutant M2 (I60N; G62S); assay: as above
[15] = molecular target: T8, KIR3DL2 mutant M1 (R13W; A25T; Q27R); assay: binding to HEK-293T cells transfected with KIR3DL2 mutant; '-' = substantially complete loss of binding
[16] = molecular target: T13, KIR3DL2 mutant M1 + 2A3 (P14S; S15A; …); assay: binding to HEK-293T cells transfected with KIR3DL2 mutant
[17] = molecular target: T14, KIR3DL2 mutant M14 (W226A) (human, UniProt P43630 22-455); assay: binding to HEK-293T cells transfected with KIR3DL2 mutant; '-' = substantially complete loss of binding
T14 construct: On transfected HEK-293T cells; also called Mutant 14; Number 14

[18] = molecular target: T15, KIR3DL2 mutant M18 (A278H; L279A; C281A; V282A) (human, UniProt P43630 22-455); assay: binding to HEK-293T cells transfected with KIR3DL2 mutant
T15 construct: On transfected HEK-293T cells; also called Number 18

[19] = molecular target: T16, KIR3DL2 mutant M21 (C281Y; C315P) (human, UniProt P43630 22-455); assay: as above
T16 construct: On transfected HEK-293T cells; also called Number 21

[20] = molecular target: T17, KIR3DL2 mutant M12 (I196A; L199A; N285A; S286A) (human, UniProt P43630 22-455); assay: as above
T17 construct: On transfected HEK-293T cells; also called Mutant 12; Number 12

[21] = molecular target: T18, KIR3DL2 mutant M13 (T212A; N218A) (human, UniProt P43630 22-455); assay: as above
T18 construct: On transfected HEK-293T cells; also called Number 13

[22] = molecular target: T19, KIR3DL2 mutant M19 (A278H; L279S; V282E) (human, UniProt P43630 22-455); assay: as above
T19 construct: On transfected HEK-293T cells; also called Number 19

[23] = molecular target: T20, KIR3DL2 mutant M17 (P249A) (human, UniProt P43630 22-455); assay: as above
T20 construct: On transfected HEK-293T cells; also called Mutant 17; Number 17

Binder	binding result [1]	binding result [2]	binding result [3]	binding result (KIR3DL2 mutant M5 (P66T))	binding result [4]	binding result [5]	binding result [6]	binding result [7]	binding result [8]	binding result [9]	binding result [10]	binding result [11]	binding result [17]	binding result [18]	binding result [19]	binding result [20]	binding result [21]	binding result [22]	binding result [23]	also measured
B1	binds	no binding	no binding	binds	binds	binds	binds	binds	binds	binds	binds	binds	–	–	–	–	–	–	–	–
B2	binds	no binding	no binding	binds	binds	binds	binds	binds	binds	binds	binds	binds	–	–	–	–	–	–	–	–
B3	binds	–	–	binds	binds	binds	binds	binds	binds	binds	binds	binds	–	–	–	–	–	–	–	binding result [12]: no binding; binding result [13]: binds; binding result [14]: binds
B4	–	no binding	no binding	–	binds	–	–	–	–	binds	binds	binds	–	–	–	–	–	–	–	binding result [15]: no binding; binding result [16]: binds
B5	binds	–	–	–	–	–	–	–	–	–	–	–	no binding	binds	binds	binds	binds	binds	binds	–
B6	binds	–	–	–	–	–	–	–	–	–	–	–	no binding	binds	binds	binds	binds	binds	binds	–
